Reference: patent EP4410371A1 (Max-Planck-Gesellschaft zur Förderung der Wissenschaften …, dated 2024)
Numbering of substitutions follows the chain as printed. Like-named read-outs stand apart in the source and are kept apart here.

Columns and labels:
[1] = molecular target: T1, Cys-HLA used for Octet assays following biotinylation at the N-terminal ectopic cysteine (Staphylococcus aureus, UniProt P09616 27-319)
[2] = molecular target: T1, Cys-HLA used for Octet assays following …; assay: BLI (Octet), biotinylated HLA on streptavidin sensors

B1: VHH antibody Ma8A05 (VHH)
VHH: QVQLVESGGGLVQPGGSLRLSCAASPASGFTLDLYTIAWFLQAPGKEREGVSAISLSDEITYYSDAVKGRFTISRDSAKNTVFLQMDRLKPEDTGVYYCAIGAFDFILKEADADYWGQGTQVTVSS
B1 gave a Kd [1] of 0.6 nM.

B2: VHH antibody Ma8D05 (VHH)
VHH: B1 VHH with A66T
For B2, the Kd [1] was 1 nM.

B3: VHH antibody Ma7B01 (VHH)
VHH: QVQLVESGGGLVQAGDSLSLSCAASGRTFSNYAMGWFRQAPGKERHFVAVINQIGDSTWYPDFAKGRFTISRDNAKNTLYLQMNSLKPEDTAVYYCAATDPRSYWRIWPHEYGYWGQGTQVTVSS
In the case of B3, the Kd [1] is reported as 0.05 nM.

B4: VHH antibody Ma7E01 (VHH)
VHH: B3 VHH with L11S, A23V, G26E, Q53P, D56E, S57E, P109E, Y112F, G113D
B4 was tested, and the Kd [1] was ≤ 0.01 nM.

B5: VHH antibody Ma7F02 (VHH)
VHH: QVQLVESGGGLVQAGGSLRLSCTVSGSIDSLHTMGWFRQAPGKKRDFVAVVSWSGGNTYYPDYAKGRFTISRDNTKNTVYLQMNSLKPEDTAIYYCAAESGSGNYWKIWEHEFDSWGQGTQVTVSS
Work on B5 yielded a Kd [2] of ~0.05 nM and a Kd [1] of 0.04 nM.

B6: VHH antibody Ma7C11 (VHH)
VHH: QVQLVESGGGLVRAGGSLRLSCAASGSISSVNGMGWFRQAPGKERLFVAQVSLLDSSTYYADSVKGRFTISRDDAKNTMYLQMNNVRPEETAVYYCAATKLRIGTAFSSEYDYWGQGTQVTVSS
Binder B6 has a Kd [1] of 0.3 nM.

B7: VHH antibody Ma8E03 (VHH)
VHH: QVQLVESGGGLVHPGGSLRLSCAASGSSLDHYVIGWFRQVPGKEREGVSCISRSGGSTNYADSVKGRFTVSRDNVKNMVYLQMNSLEPEDSAEYYCAAQRNLGNFCVLGWLEYDDWGQGTQVTVSS
With B7 the Kd [1] was ≤ 0.01 nM.

B8: VHH antibody Ma8G02 (VHH)
VHH: B7 VHH with H13L, V40Y, L111V
In the case of B8, the Kd [1] is reported as ≤ 0.01 nM.

B9: VHH antibody Ma8D07 (VHH)
VHH: QVQLVESGGGLVQPGGSLRLSCAASESIYKLNAMGWYRQAPGKELELVTTISSGGSTFYTDPVKGRFTISTDNAKNTVYLQMRSLKPEDTAMYYCAANPTYNHYSARGQGTQVTVSS
For B9, the Kd [1] was 0.8 nM.

B10: VHH antibody Ma8D08 (VHH)
VHH: B9 VHH with L11F, P14A
For B10, the Kd [1] was 1 nM.

B11: VHH antibody Ma7A07 (VHH)
VHH: QVQLVESGGGLVQPGGSLRLSCAASGFTLGDYTLGWFRQAPGKQREGVSSIASSALSIYIADSVKGRFTISRDDAKNTIYLHMNNLKPEDTGVYYCARGVDSWRWVPSAMDLWGKGTLVTVSS
B11 was tested, and the Kd [1] was ≤ 0.01 nM.

B12: VHH antibody Ma7B12 (VHH)
VHH: B11 VHH with D74N, I79V, V100I, S102N, L118Q
In the case of B12, the Kd [1] is reported as ≤ 0.01 nM.

B13: VHH antibody Ma7A08 (VHH)
VHH: B11 VHH with R19T, A55V, I58V
In the case of B13, the Kd [1] is reported as ≤ 0.01 nM.

B14: VHH antibody Ma7B03 (VHH)
VHH: B11 VHH with G30S, D31N, T33Y, L34V, A52G, A55D, D74N, E89D, V100T, L118Q
With B14 the Kd [1] was ≤ 0.01 nM.

B15: VHH antibody Ma8H03 (VHH)
VHH: QVQLVESGGGLVHPGGSLRLSCAASGSSLDHYVIGWFRQVPGKQREGISCISSGGSTNYADSVKGRFTVSRDNVKSTVYLQMNSLAPDDSAEYYCAAQRNLGNFCVLGWLEYDDWGQGTQVTVSS
With B15 the Kd [1] was ≤ 0.01 nM.

B16: VHH antibody Ma7C02 (VHH)
VHH: QVQLVESGGGLVQAGGSLRLSCAASGRTFSDYAMGWFRQAAGKDRDFVAVITRSGDSTYYPDSTKGRFTISRDNAKNTMYLQMNSLKPEDTARYYCAATDPTNYWRIWEHEFDYWGQGTQVTVSS
For B16, the Kd [1] was 0.09 nM.

B17: VHH antibody Ma7D06 (VHH)
VHH: QVQLVESGGGLVQAGGSLRLSCAASGSISGIDTMAWFRQIPGKDREFVAVIKWAAGSTWYPDFVKGRFTVSRDNAKNMVYLQMDSVKPEDTAIYYCAAAAGEKYYYRLFPYEYDYWGQGTQVTVSS
Binder B17 has a Kd [1] of 0.06 nM.
